Bridges are numbered along the chain shown (N, C = ends). [ ]: non-standard residue; d: D form. Dab = NCC[C@H](N)C(=O)O
T1: Formyl-Peptide Receptor 1 (UniProt P21462 1-350, limits assumed)
T1 sequence (looked up): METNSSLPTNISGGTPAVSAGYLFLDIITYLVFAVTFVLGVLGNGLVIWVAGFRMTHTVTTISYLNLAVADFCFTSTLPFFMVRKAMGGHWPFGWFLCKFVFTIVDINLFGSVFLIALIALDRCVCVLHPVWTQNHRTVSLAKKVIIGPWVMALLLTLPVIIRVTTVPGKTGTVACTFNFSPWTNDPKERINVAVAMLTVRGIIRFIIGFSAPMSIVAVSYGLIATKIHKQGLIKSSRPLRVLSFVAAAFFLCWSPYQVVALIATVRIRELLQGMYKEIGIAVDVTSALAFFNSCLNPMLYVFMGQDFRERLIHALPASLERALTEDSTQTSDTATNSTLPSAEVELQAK


Target: T1, Formyl-Peptide Receptor 1
Assay: cell-based or functional assay

Binder | β-Arrestin IC50 [nM]
cyclo(YHACHG[dP]WTICYWK[dP]P) (disulfide 4-11; SMILES CC[C@H](C)[C@@H]1NC(=O)[C@H]([C@@H](C)O)NC(=O)[C@H](Cc2c[nH]c3ccccc23)NC(=O)[C@H]2CCCN2C(=O)CNC(=O)[C@H](Cc2c[nH]cn2)NC(=O)[C@@H]2CSSC[C@H](NC1=O)C(=O)N[C@@H](Cc1ccc(O)cc1)C(=O)N[C@@H](Cc1c[nH]c3ccccc13)C(=O)N[C@@H](CCCCN)C(=O)N1CCC[C@@H]1C(=O)N1CCC[C@H]1C(=O)N[C@@H](Cc1ccc(O)cc1)C(=O)N[C@@H](Cc1c[nH]cn1)C(=O)N[C@@H](C)C(=O)N2) [cyclo(-Tyr-His-Ala-Cys-His-Gly-^DPro-Trp-Thr-Ile-Cys-Tyr-Trp-Lys-^DPro-Pro-)] | 36
cyclo(EHKCHG[dP]WTICYEK[dP]P) (disulfide 4-11; SMILES CC[C@H](C)[C@@H]1NC(=O)[C@H]([C@@H](C)O)NC(=O)[C@H](Cc2c[nH]c3ccccc23)NC(=O)[C@H]2CCCN2C(=O)CNC(=O)[C@H](Cc2c[nH]cn2)NC(=O)[C@@H]2CSSC[C@H](NC1=O)C(=O)N[C@@H](Cc1ccc(O)cc1)C(=O)N[C@@H](CCC(=O)O)C(=O)N[C@@H](CCCCN)C(=O)N1CCC[C@@H]1C(=O)N1CCC[C@H]1C(=O)N[C@@H](CCC(=O)O)C(=O)N[C@@H](Cc1c[nH]cn1)C(=O)N[C@@H](CCCCN)C(=O)N2) [cyclo(-Glu-His-Lys-Cys-His-Gly-^DPro-Trp-Thr-Ile-Cys-Tyr-Glu-Lys-^DPro-Pro-)] | 165
cyclo(YHACWG[dP]WTICYWK[dP]P) (disulfide 4-11; SMILES CC[C@H](C)[C@@H]1NC(=O)[C@H]([C@@H](C)O)NC(=O)[C@H](Cc2c[nH]c3ccccc23)NC(=O)[C@H]2CCCN2C(=O)CNC(=O)[C@H](Cc2c[nH]c3ccccc23)NC(=O)[C@@H]2CSSC[C@H](NC1=O)C(=O)N[C@@H](Cc1ccc(O)cc1)C(=O)N[C@@H](Cc1c[nH]c3ccccc13)C(=O)N[C@@H](CCCCN)C(=O)N1CCC[C@@H]1C(=O)N1CCC[C@H]1C(=O)N[C@@H](Cc1ccc(O)cc1)C(=O)N[C@@H](Cc1c[nH]cn1)C(=O)N[C@@H](C)C(=O)N2) [cyclo(-Tyr-His-Ala-Cys-Trp-Gly-^DPro-Trp-Thr-Ile-Cys-Tyr-Trp-Lys-^DPro-Pro-)] | 62
cyclo(YHWCHG[dP]WTICYQK[dP]P) (disulfide 4-11; SMILES CC[C@H](C)[C@@H]1NC(=O)[C@H]([C@@H](C)O)NC(=O)[C@H](Cc2c[nH]c3ccccc23)NC(=O)[C@H]2CCCN2C(=O)CNC(=O)[C@H](Cc2c[nH]cn2)NC(=O)[C@@H]2CSSC[C@H](NC1=O)C(=O)N[C@@H](Cc1ccc(O)cc1)C(=O)N[C@@H](CCC(N)=O)C(=O)N[C@@H](CCCCN)C(=O)N1CCC[C@@H]1C(=O)N1CCC[C@H]1C(=O)N[C@@H](Cc1ccc(O)cc1)C(=O)N[C@@H](Cc1c[nH]cn1)C(=O)N[C@@H](Cc1c[nH]c3ccccc13)C(=O)N2) [cyclo(-Tyr-His-Trp-Cys-His-Gly-^DPro-Trp-Thr-Ile-Cys-Tyr-Gln-Lys-^DPro-Pro-)] | 177
cyclo(YHECHG[dP]WTICYQK[dP]P) (disulfide 4-11; SMILES CC[C@H](C)[C@@H]1NC(=O)[C@H]([C@@H](C)O)NC(=O)[C@H](Cc2c[nH]c3ccccc23)NC(=O)[C@H]2CCCN2C(=O)CNC(=O)[C@H](Cc2c[nH]cn2)NC(=O)[C@@H]2CSSC[C@H](NC1=O)C(=O)N[C@@H](Cc1ccc(O)cc1)C(=O)N[C@@H](CCC(N)=O)C(=O)N[C@@H](CCCCN)C(=O)N1CCC[C@@H]1C(=O)N1CCC[C@H]1C(=O)N[C@@H](Cc1ccc(O)cc1)C(=O)N[C@@H](Cc1c[nH]cn1)C(=O)N[C@@H](CCC(=O)O)C(=O)N2) [cyclo(-Tyr-His-Glu-Cys-His-Gly-^DPro-Trp-Thr-Ile-Cys-Tyr-Gln-Lys-^DPro-Pro-)] | 321
cyclo(YHICHG[dP]WTICYQK[dP]P) (disulfide 4-11; SMILES CC[C@H](C)[C@@H]1NC(=O)[C@H](Cc2c[nH]cn2)NC(=O)[C@H](Cc2ccc(O)cc2)NC(=O)[C@@H]2CCCN2C(=O)[C@H]2CCCN2C(=O)[C@H](CCCCN)NC(=O)[C@H](CCC(N)=O)NC(=O)[C@H](Cc2ccc(O)cc2)NC(=O)[C@@H]2CSSC[C@H](NC1=O)C(=O)N[C@@H](Cc1c[nH]cn1)C(=O)NCC(=O)N1CCC[C@@H]1C(=O)N[C@@H](Cc1c[nH]c3ccccc13)C(=O)N[C@@H]([C@@H](C)O)C(=O)N[C@@H]([C@@H](C)CC)C(=O)N2) [cyclo(-Tyr-His-Ile-Cys-His-Gly-^DPro-Trp-Thr-Ile-Cys-Tyr-Gln-Lys-^DPro-Pro-)] | 35
cyclo(YHACWG[dP]WTICYQE[dP]P) (disulfide 4-11; SMILES CC[C@H](C)[C@@H]1NC(=O)[C@H]([C@@H](C)O)NC(=O)[C@H](Cc2c[nH]c3ccccc23)NC(=O)[C@H]2CCCN2C(=O)CNC(=O)[C@H](Cc2c[nH]c3ccccc23)NC(=O)[C@@H]2CSSC[C@H](NC1=O)C(=O)N[C@@H](Cc1ccc(O)cc1)C(=O)N[C@@H](CCC(N)=O)C(=O)N[C@@H](CCC(=O)O)C(=O)N1CCC[C@@H]1C(=O)N1CCC[C@H]1C(=O)N[C@@H](Cc1ccc(O)cc1)C(=O)N[C@@H](Cc1c[nH]cn1)C(=O)N[C@@H](C)C(=O)N2) [cyclo(-Tyr-His-Ala-Cys-Trp-Gly-^DPro-Trp-Thr-Ile-Cys-Tyr-Gln-Glu-^DPro-Pro-)] | 63
cyclo(YHTCHG[dP]WTICYQK[dP]P) (disulfide 4-11; SMILES CC[C@H](C)[C@@H]1NC(=O)[C@H]([C@@H](C)O)NC(=O)[C@H](Cc2c[nH]c3ccccc23)NC(=O)[C@H]2CCCN2C(=O)CNC(=O)[C@H](Cc2c[nH]cn2)NC(=O)[C@@H]2CSSC[C@H](NC1=O)C(=O)N[C@@H](Cc1ccc(O)cc1)C(=O)N[C@@H](CCC(N)=O)C(=O)N[C@@H](CCCCN)C(=O)N1CCC[C@@H]1C(=O)N1CCC[C@H]1C(=O)N[C@@H](Cc1ccc(O)cc1)C(=O)N[C@@H](Cc1c[nH]cn1)C(=O)N[C@@H]([C@@H](C)O)C(=O)N2) [cyclo(-Tyr-His-Thr-Cys-His-Gly-^DPro-Trp-Thr-Ile-Cys-Tyr-Gln-Lys-^DPro-Pro-)] | 178
cyclo(YHKCWG[dP]WTICYQK[dP]P) (disulfide 4-11; SMILES CC[C@H](C)[C@@H]1NC(=O)[C@H]([C@@H](C)O)NC(=O)[C@H](Cc2c[nH]c3ccccc23)NC(=O)[C@H]2CCCN2C(=O)CNC(=O)[C@H](Cc2c[nH]c3ccccc23)NC(=O)[C@@H]2CSSC[C@H](NC1=O)C(=O)N[C@@H](Cc1ccc(O)cc1)C(=O)N[C@@H](CCC(N)=O)C(=O)N[C@@H](CCCCN)C(=O)N1CCC[C@@H]1C(=O)N1CCC[C@H]1C(=O)N[C@@H](Cc1ccc(O)cc1)C(=O)N[C@@H](Cc1c[nH]cn1)C(=O)N[C@@H](CCCCN)C(=O)N2) [cyclo(-Tyr-His-Lys-Cys-Trp-Gly-^DPro-Trp-Thr-Ile-Cys-Tyr-Gln-Lys-^DPro-Pro-)] | 71
cyclo(YHACWG[dP]WTICYQA[dP]P) (disulfide 4-11; SMILES CC[C@H](C)[C@@H]1NC(=O)[C@H]([C@@H](C)O)NC(=O)[C@H](Cc2c[nH]c3ccccc23)NC(=O)[C@H]2CCCN2C(=O)CNC(=O)[C@H](Cc2c[nH]c3ccccc23)NC(=O)[C@@H]2CSSC[C@H](NC1=O)C(=O)N[C@@H](Cc1ccc(O)cc1)C(=O)N[C@@H](CCC(N)=O)C(=O)N[C@@H](C)C(=O)N1CCC[C@@H]1C(=O)N1CCC[C@H]1C(=O)N[C@@H](Cc1ccc(O)cc1)C(=O)N[C@@H](Cc1c[nH]cn1)C(=O)N[C@@H](C)C(=O)N2) [cyclo(-Tyr-His-Ala-Cys-Trp-Gly-^DPro-Trp-Thr-Ile-Cys-Tyr-Gln-Ala-^DPro-Pro-)] | 76
cyclo(YHWCWG[dP]WTICYQK[dP]P) (disulfide 4-11; SMILES CC[C@H](C)[C@@H]1NC(=O)[C@H]([C@@H](C)O)NC(=O)[C@H](Cc2c[nH]c3ccccc23)NC(=O)[C@H]2CCCN2C(=O)CNC(=O)[C@H](Cc2c[nH]c3ccccc23)NC(=O)[C@@H]2CSSC[C@H](NC1=O)C(=O)N[C@@H](Cc1ccc(O)cc1)C(=O)N[C@@H](CCC(N)=O)C(=O)N[C@@H](CCCCN)C(=O)N1CCC[C@@H]1C(=O)N1CCC[C@H]1C(=O)N[C@@H](Cc1ccc(O)cc1)C(=O)N[C@@H](Cc1c[nH]cn1)C(=O)N[C@@H](Cc1c[nH]c3ccccc13)C(=O)N2) [cyclo(-Tyr-His-Trp-Cys-Trp-Gly-^DPro-Trp-Thr-Ile-Cys-Tyr-Gln-Lys-^DPro-Pro-)] | 89
cyclo(YHACHG[dP]WTICYQE[dP]P) (disulfide 4-11; SMILES CC[C@H](C)[C@@H]1NC(=O)[C@H]([C@@H](C)O)NC(=O)[C@H](Cc2c[nH]c3ccccc23)NC(=O)[C@H]2CCCN2C(=O)CNC(=O)[C@H](Cc2c[nH]cn2)NC(=O)[C@@H]2CSSC[C@H](NC1=O)C(=O)N[C@@H](Cc1ccc(O)cc1)C(=O)N[C@@H](CCC(N)=O)C(=O)N[C@@H](CCC(=O)O)C(=O)N1CCC[C@@H]1C(=O)N1CCC[C@H]1C(=O)N[C@@H](Cc1ccc(O)cc1)C(=O)N[C@@H](Cc1c[nH]cn1)C(=O)N[C@@H](C)C(=O)N2) [cyclo(-Tyr-His-Ala-Cys-His-Gly-^DPro-Trp-Thr-Ile-Cys-Tyr-Gln-Glu-^DPro-Pro-)] | 132
cyclo([Dab]HKCHG[dP]WTICYEK[dP]E) (disulfide 4-11; SMILES CC[C@H](C)[C@@H]1NC(=O)[C@H]([C@@H](C)O)NC(=O)[C@H](Cc2c[nH]c3ccccc23)NC(=O)[C@H]2CCCN2C(=O)CNC(=O)[C@H](Cc2c[nH]cn2)NC(=O)[C@@H]2CSSC[C@H](NC1=O)C(=O)N[C@@H](Cc1ccc(O)cc1)C(=O)N[C@@H](CCC(=O)O)C(=O)N[C@@H](CCCCN)C(=O)N1CCC[C@@H]1C(=O)N[C@@H](CCC(=O)O)C(=O)N[C@@H](CCN)C(=O)N[C@@H](Cc1c[nH]cn1)C(=O)N[C@@H](CCCCN)C(=O)N2) [cyclo(-Dab-His-Lys-Cys-His-Gly-^DPro-Trp-Thr-Ile-Cys-Tyr-Glu-Lys-^DPro-Glu-)] | 144
cyclo(YHACWG[dP]WTICYEK[dP]P) (disulfide 4-11; SMILES CC[C@H](C)[C@@H]1NC(=O)[C@H]([C@@H](C)O)NC(=O)[C@H](Cc2c[nH]c3ccccc23)NC(=O)[C@H]2CCCN2C(=O)CNC(=O)[C@H](Cc2c[nH]c3ccccc23)NC(=O)[C@@H]2CSSC[C@H](NC1=O)C(=O)N[C@@H](Cc1ccc(O)cc1)C(=O)N[C@@H](CCC(=O)O)C(=O)N[C@@H](CCCCN)C(=O)N1CCC[C@@H]1C(=O)N1CCC[C@H]1C(=O)N[C@@H](Cc1ccc(O)cc1)C(=O)N[C@@H](Cc1c[nH]cn1)C(=O)N[C@@H](C)C(=O)N2) [cyclo(-Tyr-His-Ala-Cys-Trp-Gly-^DPro-Trp-Thr-Ile-Cys-Tyr-Glu-Lys-^DPro-Pro-)] | 68

— patent publication US9957297B2, “Template-fixed peptidomimetics as inhibitors of FPR1” (POLYPHOR AG, priority 2011, dated 2018)
